Blank lines part the entries; values can stand above or below the substance they belong to.
How the values were obtained:
IP-10 = target: T1, IP-10 (Homo sapiens, UniProt P02778); test: Micro-array analysis of chemokine binding peptides: IP-10; conditions: limit = start of the upper 75% of that peptide's response range
T1 construct: purchased 300-12
T1 sequence (P02778 22-98): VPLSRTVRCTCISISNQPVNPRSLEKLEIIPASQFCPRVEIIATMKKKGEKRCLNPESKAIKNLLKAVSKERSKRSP
Description: (§1) (1) Printing: Chemokine (CK) solution (in water) was serially diluted with Print Reagent (GenTel BioSurfaces USA) to final concentrations of 50 μg and 25 μg/ml. BSA/BSA-Biotin control solutions (in water) were diluted with Print Reagent to 100 μg/ml. Amplified stock of M13 phage control (M13KEgIII Cloning Vector, New England Biolabs, Cat.No.E8101S) was stored in Tris Buffered Saline (TBS; pH7.5, 4° C.) and diluted with Print Reagent to the working titre (10^8 pfu/μl). An automated spotting robot (16 pin print tool, 0.4 mm head; BioRobotics, UK) was used to print the CK/BSA control/M13 control, 5 repeats per sample (CK 25 μg/ml and 50 μg/ml; BSA 100 μg/ml; M13 20 μl), on PATH Protein Microarray Slides (GenTel, Prod.No. 2-1005/-1025) at […], and 50-70% relative humidity. Printed micro-array slides were stored at Room Temperature (RT) or 4° C. for at least 24 h before use.
(§2) (2) Blocking: Block Buffer (500 μl/partition; PATHblock, GenTel, Prod.No. 2-1014) was applied to the slide for 1 hour at room temp (RT). After removal of Block Buffer, the slide was air dried for 25 minutes;
(§3) (3) Phage Presented Peptide Binding: Amplified recombinant phage stock was stored in TBS and diluted with Wash Buffer to working titer (10^7 pfu/μl). Recombinant phage suspension (300 μl) was applied per partition and incubated at RT for 1 hour with gentle agitation.
(§4) (4) First Washing: The slides were washed twice with Wash Buffer 300 μl/partition).
(§5) (5) Primary Antibody (Ab) Labeling: The slides were incubated with the Primary Ab (1 mg/ml diluted ×2500 (Wash Reagent), 300 μl; Mouse Anti-M13 monoclonal Ab; Amersham Biosciences, UK; Product Code 27-9420-01) for 45 minutes at RT.
(§6) (6) Second Washing: The slides were washed twice with Wash Buffer (300 μl/partition).
(§7) (7) Secondary Ab Labeling: The slides were incubated with Secondary Ab (1.5 mg/ml diluted ×5000 (Wash Reagent), 300 μl; Cy3-conjugated AffiniPure Goat Anti-Mouse IgG; Jackson ImmunoReserch Labs, USA; Product Code 115-165-062).
(§8) (8) Third Washing: The slides were washed twice with Wash Buffer (300 μl/partition).
(§9) (9) Rinse: the slides were rinsed twice with Rinse Buffer (PATHrinse, GenTel, Prod.No. 2-1018) then dried well.
(§10) (10) Scanning: The peptide-bound, labeled slide was scanned (Laser Intensity 80%, Gain 80%, Resolution 10 μm) with a ScanArray Life Scanner (Packard BioChip Technologies, USA).
(§11) (11) Analysis: Quantitative analysis of micro-array was performed by the SpotReader program of Niles Scientific (USA) and presented as Relative Fluorescence (RF) as a function of CK concentration. Micro-array readout (Cy3 fluorescence) was quantified to determine the relative binding affinities of a CBP for the CKs and by inference, the specificity of the CBP for binding to a CK.

I-TAC = target: T2, I-TAC (Homo sapiens, UniProt O14625); test: Micro-array analysis of chemokine binding peptides: I-TAC; conditions: limit = start of the upper 75% of that peptide's response range
T2 construct: purchased 300-46
T2 sequence (O14625 22-94): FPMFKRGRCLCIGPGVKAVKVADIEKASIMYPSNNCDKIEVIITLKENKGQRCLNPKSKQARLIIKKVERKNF
Description: as §1, §2, §3, §4, §5, §6, §7, §8, §9, §10, §11

Eotaxin 3 = target: T3, Eotaxin 3 (Homo sapiens, UniProt Q9Y258); test: Micro-array analysis of chemokine binding peptides: Eotaxin 3
T3 construct: purchased 300-48
T3 sequence (Q9Y258 24-94): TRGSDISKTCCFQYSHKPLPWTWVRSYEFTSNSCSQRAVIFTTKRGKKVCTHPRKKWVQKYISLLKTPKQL
Description: as §1, §2, §3, §4, §5, §6, §7, §8, §9, §10, §11

SDF1-α = target: T4, SDF1-α (Homo sapiens, UniProt P48061); test: Micro-array analysis of chemokine binding peptides: SDF1-α
T4 construct: purchased 300-28a
T4 sequence (P48061 22-89 limits assumed): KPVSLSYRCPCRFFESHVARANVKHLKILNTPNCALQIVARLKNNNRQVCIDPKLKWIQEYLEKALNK
Description: as §1, §2, §3, §4, §5, §6, §7, §8, §9, §10, §11

SDF1-β = target: T5, SDF1-β (Homo sapiens, UniProt P48061); test: Micro-array analysis of chemokine binding peptides: SDF1-β
T5 construct: purchased 300-28b
T5 sequence (P48061 22-93): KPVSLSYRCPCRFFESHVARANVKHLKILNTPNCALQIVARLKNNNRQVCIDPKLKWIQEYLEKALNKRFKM
Description: as §1, §2, §3, §4, §5, §6, §7, §8, §9, §10, §11

BCA-1 = target: T6, BCA-1 (Homo sapiens, UniProt O43927); test: Micro-array analysis of chemokine binding peptides: BCA-1
T6 construct: purchased 300-47
T6 sequence (O43927 23-109): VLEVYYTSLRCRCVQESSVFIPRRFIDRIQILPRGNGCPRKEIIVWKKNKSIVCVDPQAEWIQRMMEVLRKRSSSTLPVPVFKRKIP
Description: as §1, §2, §3, §4, §5, §6, §7, §8, §9, §10, §11

TECK = target: T7, TECK (Homo sapiens, UniProt O15444); test: Micro-array analysis of chemokine binding peptides: TECK
T7 construct: purchased 300-45
T7 sequence (O15444 24-150): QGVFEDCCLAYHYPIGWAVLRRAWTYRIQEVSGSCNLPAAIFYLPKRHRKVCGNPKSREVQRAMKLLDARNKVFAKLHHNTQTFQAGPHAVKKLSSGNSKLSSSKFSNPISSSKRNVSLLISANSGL
Description: as §1, §2, §3, §4, §5, §6, §7, §8, §9, §10, §11

Exodus-2 = target: T8, Exodus-2 (Homo sapiens, UniProt O00585); test: Micro-array analysis of chemokine binding peptides: Exodus-2
T8 construct: purchased 300-35
T8 sequence (O00585 24-134): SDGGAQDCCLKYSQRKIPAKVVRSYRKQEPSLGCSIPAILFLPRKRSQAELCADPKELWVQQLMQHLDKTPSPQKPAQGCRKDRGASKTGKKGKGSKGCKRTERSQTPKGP
Description: as §1, §2, §3, §4, §5, §6, §7, §8, §9, §10, §11

C-TAC = target: T9, C-TAC (Homo sapiens, UniProt Q9Y4X3); test: Micro-array analysis of chemokine binding peptides: C-TAC
T9 construct: purchased 300-54
T9 sequence (Q9Y4X3 25-112): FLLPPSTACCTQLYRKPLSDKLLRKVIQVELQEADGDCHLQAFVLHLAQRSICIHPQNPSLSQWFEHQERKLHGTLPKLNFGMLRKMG
Description: as §1, §2, §3, §4
(5) Primary Antibody (Ab) Labeling: The slides were incubated with the Primary Ab (1 mg/ml diluted ×2500 (Wash Reagent), 300 μl; Mouse Anti-M13 monoclonal Ab; Amersham Biosciences, UK; Product Code 27-9420-01) for 45 minutes at RT. […]
as §11

GRO-β = target: T10, GRO-β (Homo sapiens, UniProt P19875); test: Micro-array analysis of chemokine binding peptides: GRO-β
T10 construct: purchased 300-39
T10 sequence (P19875 35-107): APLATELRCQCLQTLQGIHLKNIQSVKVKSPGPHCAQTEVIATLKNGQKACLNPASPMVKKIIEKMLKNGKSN
Description: as §1, §2, §3, §4, §5, §6, §7, §8, §9, §10, §11

IL-8 = test: Micro-array analysis of chemokine binding peptides: IL-8
Sequence of IL-8 (P10145 28-99 limits assumed): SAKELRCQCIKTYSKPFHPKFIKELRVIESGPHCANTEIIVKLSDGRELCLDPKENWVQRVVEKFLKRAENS
Description: as §1, §2, §3, §4, §5, §6, §7, §8, §9, §10, §11

Mig = target: T11, Mig (Homo sapiens, UniProt Q07325); test: Micro-array analysis of chemokine binding peptides: Mig; conditions: limit = start of the upper 75% of that peptide's response range
T11 construct: purchased 300-26
T11 sequence (Q07325 23-125): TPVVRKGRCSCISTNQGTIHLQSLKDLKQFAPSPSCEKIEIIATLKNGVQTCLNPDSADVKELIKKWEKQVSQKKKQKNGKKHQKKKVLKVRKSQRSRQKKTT
Description: as §1, §2, §3, §4, §5, §6, §7, §8, §9, §10, §11

MCP-1 = target: T12, MCP-1 (Homo sapiens, UniProt P13500); test: Micro-array analysis of chemokine binding peptides: MCP-1
T12 construct: purchased 300-04
T12 sequence (P13500 24-99): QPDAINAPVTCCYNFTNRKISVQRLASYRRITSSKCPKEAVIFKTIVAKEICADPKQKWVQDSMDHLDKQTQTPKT
Description: as §1, §2, §3, §4, §5, §6, §7, §8, §9, §10, §11

MCP-2 = target: T13, MCP-2 (Homo sapiens, UniProt P80075); test: Micro-array analysis of chemokine binding peptides: MCP-2
T13 construct: purchased 300-15
T13 sequence (P80075 24-99): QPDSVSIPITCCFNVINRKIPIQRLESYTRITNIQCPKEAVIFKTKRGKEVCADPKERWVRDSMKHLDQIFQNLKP
Description: as §1, §2, §3, §4, §5, §6, §7, §8, §9, §10, §11

MCP-4 = target: T14, MCP-4 (Homo sapiens, UniProt Q99616); test: Micro-array analysis of chemokine binding peptides: MCP-4
T14 construct: purchased 300-24
T14 sequence (Q99616 17-98): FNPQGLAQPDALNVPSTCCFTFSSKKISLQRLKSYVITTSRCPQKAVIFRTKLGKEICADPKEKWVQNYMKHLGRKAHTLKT
Description: as §1, §2, §3, §4, §5, §6, §7, §8, §9, §10, §11

RANTES = target: T15, RANTES (Homo sapiens, UniProt P13501); test: Micro-array analysis of chemokine binding peptides: RANTES
T15 construct: purchased 300-06
T15 sequence (P13501 24-91): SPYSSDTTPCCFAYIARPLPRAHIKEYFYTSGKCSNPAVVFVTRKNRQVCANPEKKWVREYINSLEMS
Description: as §1, §2, §3, §4, §5, §6, §7, §8, §9, §10, §11

Eotaxin = target: T16, Eotaxin (Homo sapiens, UniProt P51671); test: Micro-array analysis of chemokine binding peptides: Eotaxin
T16 construct: purchased 300-21
Description: as §1, §2, §3, §4, §5, §6, §7, §8, §9, §10, §11

Eotaxin 2 = target: T17, Eotaxin 2 (Homo sapiens, UniProt O00175); test: Micro-array analysis of chemokine binding peptides: Eotaxin 2
T17 construct: purchased 300-33
T17 sequence (O00175 27-119): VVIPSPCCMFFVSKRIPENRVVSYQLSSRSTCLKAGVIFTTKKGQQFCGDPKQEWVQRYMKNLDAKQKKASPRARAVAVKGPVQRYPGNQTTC
Description: as §1, §2, §3, §4, §5, §6, §7, §8, §9, §10, §11

Fractalkine = target: T18, Fractalkine (Homo sapiens, UniProt P78423); test: Micro-array analysis of chemokine binding peptides: Fractalkine
T18 construct: purchased 300-31
T18 sequence (P78423 25-100 limits assumed): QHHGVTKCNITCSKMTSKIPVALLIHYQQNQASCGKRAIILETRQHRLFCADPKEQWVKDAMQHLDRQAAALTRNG
Description: as §1, §2, §3, §4, §5, §6, §7, §8, §9, §10, §11

Lymphotactin = target: T19, Lymphotactin (Homo sapiens, UniProt P47992); test: Micro-array analysis of chemokine binding peptides: Lymphotactin
T19 construct: purchased 300-20
T19 sequence (P47992 22-114): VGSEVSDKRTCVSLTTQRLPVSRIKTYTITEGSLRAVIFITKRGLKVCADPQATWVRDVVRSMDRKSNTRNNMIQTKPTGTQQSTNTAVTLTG
Description: as §1, §2, §3, §4, §5, §6, §7, §8, §9, §10, §11

binding to IP-10 with relatively high affinity (Relative Fluorescence Units) (IP-10): > 10,000 RFU
binding to I-TAC with relatively high affinity (Relative Fluorescence Units) (I-TAC): > 10,000 RFU
binding to Eotaxin 3 with relatively high affinity (Relative Fluorescence Units) (Eotaxin 3; limit = start of the upper 75% of that peptide's response range): > 10,000 RFU
binding to SDF1-α, stated in words (SDF1-α): bound
binding to SDF1-β, stated in words (SDF1-β): bound
binding to BCA-1, stated in words (BCA-1): bound
binding to TECK, stated in words (TECK): bound
binding to Exodus-2, stated in words (Exodus-2): bound
binding to C-TAC, stated in words (C-TAC): bound
Substance: NAMCK (listed as Homo sapiens) [Ph-p8.11]

binding to GRO-β, stated in words (GRO-β): bound
binding to IL-8, stated in words (IL-8): bound
binding to Mig with relatively high affinity (Relative Fluorescence Units) (Mig): > 15,000 RFU
binding to I-TAC with relatively high affinity (Relative Fluorescence Units) (I-TAC): > 15,000 RFU
binding to MCP-1, stated in words (MCP-1): bound
binding to MCP-2, stated in words (MCP-2): bound
binding to MCP-4, stated in words (MCP-4): bound
binding to RANTES, stated in words (RANTES): bound
binding to Eotaxin, stated in words (Eotaxin): bound
binding to Eotaxin 2, stated in words (Eotaxin 2): bound
binding to Eotaxin 3, stated in words (Eotaxin 3): bound
binding to BCA-1, stated in words (BCA-1): bound
binding to TECK, stated in words (TECK): bound
binding to Fractalkine, stated in words (Fractalkine): bound
binding to Lymphotactin, stated in words (Lymphotactin): bound
binding to Exodus-2, stated in words (Exodus-2): bound
Substance: SYYDDVGL [Ph-p27]

Source: patent US12072338B2, “Pharmaceutical peptides for the treatment of inflammatory diseases” (PROTAGONISTS LTD., priority 2007, dated 2024)
